One assay concerns the target HLA-A*02:01. As to the kind of experiment: IEDB peptide-MHC binding, purified MHC/competitive/fluorescence; filed as Kd, often an IC50 or EC50 that approximates it; ≥ and ≤ were set here for values at or beyond the usual limits of such assays.
Another assay deals with HLA-B*57:01. Described as above. To be noted: source organism: Giardia lamblia ATCC 50803.
The target of another assay is HLA-B*15:01. The description is as above. Conditions: source organism: Giardia lamblia ATCC 50803.
A further assay addresses HLA-B*15:17. The assay is described as above.
Another assay deals with HLA-A*68:02. The assay is described as above. To be noted: source organism: Giardia lamblia ATCC 50803.
Assay [1] concerns the target HLA-A*11:01. As to the kind of experiment: IEDB peptide-MHC binding, purified MHC/direct/fluorescence; filed as Kd, often an IC50 or EC50 that approximates it; ≥ and ≤ were set here for values at or beyond the usual limits of such assays. Conditions: source organism: Giardia intestinalis.
The next assay deals with HLA-B*58:01. Described as above. Conditions: source organism: Giardia intestinalis.
For another assay, the target named is HLA-A*26:01. Described as above.
The target of assay [2] is HLA-A*69:01. Described as above. Conditions: source organism: Giardia intestinalis.
For a further assay, the target named is HLA-B*27:05. Described as above. To be noted: source organism: Giardia intestinalis.
The target of the next assay is HLA-A*31:01. The description is as above. Conditions: source organism: Giardia intestinalis.
The next assay deals with HLA-B*48:01. Described as above. Conditions: source organism: Giardia intestinalis.
The target in the next assay is HLA-A*03:01. Described as above. To be noted: source organism: Giardia intestinalis.
A further assay concerns the target HLA-B*46:01. Described as above. Conditions: source organism: Giardia intestinalis.
A further assay addresses HLA-B*08:03. The assay is described as above. To be noted: source organism: Giardia lamblia ATCC 50803.
The target in a further assay is HLA-B*07:02. The assay is described as above. Conditions: source organism: Giardia intestinalis.
Assay [3] deals with HLA-B*18:01. Described as above. Conditions: source organism: Giardia intestinalis.
Another assay deals with HLA-A*26:03. Described as above. To be noted: source organism: Giardia lamblia ATCC 50803.
The next assay concerns the target HLA-B*40:01. The description is as above. To be noted: source organism: Giardia intestinalis.
The target of assay [4] is HLA-A*01:01. The assay is described as above. Conditions: source organism: Giardia intestinalis.
The target of the next assay is HLA-B*08:01. The assay is described as above. Conditions: source organism: Giardia lamblia ATCC 50803.
The target in a further assay is HLA-B*08:02. Described as above. Conditions: source organism: Giardia lamblia ATCC 50803.
The next assay deals with HLA-B*83:01. The experiment in a line: IEDB peptide-MHC binding, purified MHC/competitive/fluorescence; filed as Kd, often an IC50 or EC50 that approximates it; ≥ and ≤ were set here for values at or beyond the usual limits of such assays.
The target in the next assay is HLA-B*15:42. The description is as above.
A further assay concerns the target HLA-C*14:02. The description is as above. Conditions: source organism: Yellow fever virus.
A further assay concerns the target HLA-B*45:06. Described as above.
For a further assay, the target named is HLA-C*15:02. The experiment in a line: IEDB peptide-MHC binding, purified MHC/direct/fluorescence; filed as Kd, often an IC50 or EC50 that approximates it; ≥ and ≤ were set here for values at or beyond the usual limits of such assays.
The target in assay [5] is HLA-A*26:02. Described as above. Conditions: source organism: West Nile virus strain PTRoxo.
Assay [6] deals with HLA-A*69:01. As to the kind of experiment: IEDB peptide-MHC binding, purified MHC/competitive/fluorescence; filed as Kd, often an IC50 or EC50 that approximates it; ≥ and ≤ were set here for values at or beyond the usual limits of such assays.
For another assay, the target named is HLA-C*04:01. Described as above. To be noted: source organism: human gammaherpesvirus 4.
A further assay addresses HLA-C*05:01. The experiment in a line: IEDB peptide-MHC binding, purified MHC/direct/fluorescence; filed as Kd, often an IC50 or EC50 that approximates it; ≥ and ≤ were set here for values at or beyond the usual limits of such assays. Conditions: source organism: human gammaherpesvirus 4.
The target of assay [7] is HLA-A*11:01. As to the kind of experiment: IEDB peptide-MHC binding, purified MHC/competitive/fluorescence; filed as Kd, often an IC50 or EC50 that approximates it; ≥ and ≤ were set here for values at or beyond the usual limits of such assays. To be noted: source organism: Human immunodeficiency virus 1.
For another assay, the target named is HLA-A*02:03. Described as above. To be noted: source organism: Human immunodeficiency virus 1.
The target in assay [8] is HLA-A*26:02. The assay is described as above. To be noted: source organism: Human immunodeficiency virus 1.
Assay [9] has as its target HLA-B*18:01. The description is as above. Conditions: source organism: Human immunodeficiency virus 1.
A further assay addresses HLA-A*30:01. Described as above. To be noted: source organism: Human immunodeficiency virus 1.
In assay [10] the target is HLA-A*01:01. The assay is described as above. To be noted: source organism: Human immunodeficiency virus 1.
A further assay addresses HLA-A*02:06. The assay is described as above. Conditions: source organism: Human immunodeficiency virus 1.
The mark [11] stands for this setting: source organism: Giardia lamblia ATCC 50803.
The mark [12] stands for this setting: source organism: Yellow fever virus.
The mark [13] stands for this setting: source organism: human gammaherpesvirus 4.
Where [14] appears, read: source organism: Human immunodeficiency virus 1.
[15] abbreviates: source organism: Camelpox virus CMS.

Some results are limits rather than exact numbers.

As usually defined, the Kd is the equilibrium constant for the complex coming apart. In the case of RTMPLSRFT, the Kd in the assay with HLA-A*02:01 (setting [11]) is at least 20 µM; with HLA-B*57:01, 0.375 µM; with HLA-B*15:01, 14 µM; with HLA-B*15:17 (setting [11]) it was at least 20 µM; with HLA-A*68:02, 4.56 µM; in the assay with HLA-A*11:01 [1], 2.68 µM. The Kd in the assay with HLA-B*58:01 was at least 20 µM; with HLA-A*26:01 (setting [11]) it was at least 20 µM; in the assay with HLA-A*69:01 [2], at least 20 µM; with HLA-B*27:05, at least 20 µM; in the assay with HLA-A*31:01, 12.5 µM; in the assay with HLA-B*48:01 it was at least 20 µM. The dissociation constant Kd in the assay with HLA-A*03:01, with HLA-B*46:01, in the assay with HLA-B*08:03, with HLA-B*07:02, in the assay with HLA-B*18:01 [3] and with HLA-A*26:03 was at least 20 µM each time. Besides, the Kd with HLA-B*40:01, with HLA-A*01:01 [4], in the assay with HLA-B*08:01 and in the assay with HLA-B*08:02 was at least 20 µM throughout.
For MWHVTRGAF, the Kd with HLA-B*83:01 (setting [12]) is at least 5 µM; with HLA-B*15:42 (setting [12]), at least 5 µM; with HLA-C*14:02, 0.0028 µM; with HLA-B*45:06 (setting [12]), at least 5 µM; in the assay with HLA-C*15:02 (setting [12]), at least 20 µM.
In the case of STKAACPTM, the Kd stood at 15.7 µM in the assay with HLA-A*26:01 (source organism: West Nile virus) and 1.04 µM with HLA-A*26:02 [5].
On to FTASVSTVV, for which the Kd with HLA-B*83:01 (setting [13]) is at least 5 µM; in the assay with HLA-A*02:01 (setting [13]), 0.0027 µM; with HLA-A*69:01 [6] (setting [13]) it was at most 0.0001 µM; with HLA-B*15:42 (setting [13]) it was at least 5 µM; with HLA-C*04:01, at least 5 µM; in the assay with HLA-B*45:06 (setting [13]), at least 5 µM. The same sequence yielded a Kd in the assay with HLA-C*05:01 of 3.95 µM.
Regarding RSLYNTVATLY, the Kd is at least 20 µM with HLA-A*11:01 [7]; at least 20 µM with HLA-A*02:03; 16.6 µM in the assay with HLA-A*69:01 [6] (setting [14]); 0.0007 µM with HLA-B*15:17 (setting [14]); at least 20 µM with HLA-A*26:02 [8]; 0.0763 µM in the assay with HLA-B*18:01 [9]. Further, the Kd with HLA-A*30:01, with HLA-A*01:01 [10] and in the assay with HLA-A*02:06 was at least 20 µM in each case.
For IVIEAIHTV, the values for the Kd with HLA-A*02:01 (setting [15]) and with HLA-C*15:02 (setting [15]) were 0.0021 µM and 0.341 µM, respectively.

The values are drawn from the Immune Epitope Database (IEDB).
